Laboratory results published in article PMC5736413.

Key:
[1] = target: FH19–20 19–20 (Homo sapiens) (UniProt P08603); experiment: SPR; conditions: cited from earlier work
[2] = target: recombinant mouse C3d (C1010A) (mouse) (UniProt P01027); experiment: SPR
Sequence of recombinant mouse C3d (C1010A) (mouse) (P01027 1002-1303 C1010A): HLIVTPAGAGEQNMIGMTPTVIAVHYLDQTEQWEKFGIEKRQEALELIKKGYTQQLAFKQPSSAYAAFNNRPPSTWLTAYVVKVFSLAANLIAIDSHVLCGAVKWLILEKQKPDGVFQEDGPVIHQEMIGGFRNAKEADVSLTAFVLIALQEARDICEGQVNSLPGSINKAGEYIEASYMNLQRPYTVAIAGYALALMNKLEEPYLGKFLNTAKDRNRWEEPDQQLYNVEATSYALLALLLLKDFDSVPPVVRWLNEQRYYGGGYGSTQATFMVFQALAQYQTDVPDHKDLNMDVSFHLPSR

Sequence of C3d C3d (P01024 1002-1303): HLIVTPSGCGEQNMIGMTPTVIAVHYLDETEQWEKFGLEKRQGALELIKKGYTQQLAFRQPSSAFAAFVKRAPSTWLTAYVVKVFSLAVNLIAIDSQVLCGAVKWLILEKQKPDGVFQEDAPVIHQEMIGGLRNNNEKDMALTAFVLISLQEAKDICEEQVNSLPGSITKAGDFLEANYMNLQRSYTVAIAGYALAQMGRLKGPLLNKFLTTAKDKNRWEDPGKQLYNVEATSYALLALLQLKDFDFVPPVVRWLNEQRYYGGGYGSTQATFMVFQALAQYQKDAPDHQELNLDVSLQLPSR
Sequence of FH19–20 19–20 (Homo sapiens) (P08603 1104-1231): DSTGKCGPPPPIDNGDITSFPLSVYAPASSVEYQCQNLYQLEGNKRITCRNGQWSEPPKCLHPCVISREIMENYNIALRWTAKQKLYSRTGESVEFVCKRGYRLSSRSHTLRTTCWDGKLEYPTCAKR

| Kd [2] [nM] | Substance | Kd [1] [nM] |
| --- | --- | --- |
|  | C3d C3d (from UniProt P01024) | 180 |
| 136 | recombinant mouse Factor H-related protein A (prototype, class A clone 3A4/5G4) (natural protein) |  |
| 546 | recombinant mouse Factor H-related protein B (natural protein) |  |
| 1040 | recombinant mouse Factor H-related protein C (natural protein) |  |
